Test results: patent US20220411514A1, “ANTI-GAL3 ANTIBODIES AND METHODS OF USE FOR INSULIN RESISTANCE” (TrueBinding, Inc., priority 2021, published 2022)

Columns and labels:
[1] = target: T1, human Gal3 (Homo sapiens, UniProt P17931); test: Epitope binning, sandwich format, SPR Carterra LSA (Example 8); type: binding
T1 construct: 6xHis (linker-spaced) (C); purchased AcroBio (Acro Biosystems) GA3-H5129
Protocol: The epitope binning assay was done in a sandwich format on the high-throughput SPR-based Carterra LSA unit (CarterraBio, Salt Lake City, Utah). First, the purified antibodies were diluted to 10 μg/ml concentration in 10 mM NaOAc (pH 5.0) and then were covalently coupled via amine group to HC200M chip activated by EDC and S-NHS to immobilize antibodies to different positions of a 384-spot array. One hundred thirty-eight binning cycles were run on the array of immobilized antibodies. In each cycle, first, human Gal3 (AcroBio GA3-H5129) was injected over the entire array to bind to different antibodies (primary antibody), followed by one antibody (secondary antibody) selected among the panel of 150 anti-GAL3 antibodies tested. At the end of each cycle, the array was regenerated by 10 mM Glycine (pH 2.0) to remove bound antigen and secondary antibody from the array. The data analysis was done using the Epitope software by CarterraBio.

[2] = target: T2, Human Gal3 peptides (Homo sapiens, UniProt P17931); test: Gal3 peptide binding ELISA (Example 8); conditions: antibody 5 μg/mL
T2 construct: purchased LifeTein custom order
Protocol: Gal3 peptide binding activity of additional exemplary anti-Gal3 antibodies was assessed with the same peptides as described in FIG. 18 (SEQ ID NOs: 3-26). Human Gal3 peptides (LifeTein, custom order) and human Gal3 proteins (R&D Systems, 8259-GA; TrueBinding, QCB200349) were diluted in PBS (Corning, 21-030-CM) to concentrations of at least 100 μg/mL (peptides) or 1 μg/mL (proteins), and added to the wells of several 96-well ELISA plates (Thermo Fisher, 44-2404-21). After incubating the plates at 4° C. overnight, the plates were washed three times with PBST (PBS with 0.05% Tween 20 [VWR, 0777]). The plates were then blocked for an hour with 2% BSA (EMD Millipore, 126609) in PBST at room temperature with gentle rocking. Thereafter, the 2% BSA in PBST was discarded and Gal3-binding antibodies (reformatted hIgG4 [S228P]) were diluted in 2% BSA in PBST to concentrations of 5 μg/mL and added to the wells. The plates were incubated for an hour at room temperature with gentle rocking and then washed three times with PBST. Afterwards, Peroxidase AffiniPure F(ab′)2 Fragment Goat Anti-Human IgG (H+L) polyclonal antibody (Jackson ImmunoResearch, 109-036-003), was diluted in 2% BSA in PBST (1:4000) and added to the wells. The plates were incubated for 1 hour at room temperature with gentle rocking and then washed three times with PBST. TMB substrate (Thermo Scientific, 34029) was then added to each well. The reaction was stopped with 1M HCl (JT Baker, 5620-02) and read using a plate reader (Molecular Devices) at absorbance of 450 nm.

[3] = tested on: GLUT4 translocation in L6 GLUT4myc myoblasts; test: Insulin-stimulated GLUT4 translocation with Gal3 and anti-Gal3 antibody; type: cell-based, rat; conditions: 30 μg/mL Gal3 pre-incubated with 60 μg/mL antibody, 100 nM insulin
Protocol: Rat L6 GLUT4myc myoblasts (Kerafast #ESK202-FP) express a Myc-tagged GLUT4 that can be detected with an anti-Myc antibody. These cells were grown in a 48-well plate in MEM u growth media (Gibco, #12-571-063)+10% fetal bovine serum (FBS; Corning #35-016-CV) until 90-95% confluence was reached. Cells were then washed in PBS and serum starved for 2 hours in MEM u growth media without FBS. Thirty (30) μg/mL recombinant human Gal3 (TrueBinding QCB200347) was pre-incubated with 60 μg/mL anti-Gal3 antibodies for 30 minutes before being added to the serum-starved cells for 1 hour at 37° C. At the end of incubation, half of the cells were treated with 100 nM insulin (Sigma-Aldrich #I5523-50MG) for 20 minutes while the other half acted as basal controls. After 20 minutes, cells were washed quickly with ice cold PBS twice, then incubated with 4% paraformaldehyde (Boster Bio #AR1068) for 10 minutes on ice followed by 10 minutes at room temperature. The cells were washed three times with PBS, then blocked with 0.5 mL 5% goat serum (Vector Laboratories #101098-382) in PBS for 15 minutes. After the blocking agent was aspirated from the cells, 1 μg/ml anti-Myc polyclonal antibody (Sigma-Aldrich #C-3956) in 5% goat serum was added for 1 hour. […] Primary antibody was aspirated away, and then cells washed 5 times with PBS. Next, cells (including background controls) were incubated with 1:1000 goat anti rabbit antibody secondary antibody (Abcam #Ab97051) in 5% Goat serum for 30 minutes at room temperature. After washing, cells were incubated with 400 μL of TMB (Thermo Scientific #PI34029) for 5 minutes, then 200 μL of 1N HCL (Avantor Performance #JT5620-2) was added to stop the reaction. 100 μL of the sample was transferred to a 96 well plate with duplicates transferred for each condition. Samples were read at 450 nm on a SpectraMax plate reader. […] The fold changes were plotted on GraphPad Prism and presented as mean (SEM) of the technical replicates. Statistical significance was determined using unpaired T-tests comparing samples treated with Gal3 and insulin with all other conditions.

T1 sequence (P17931 whole entry): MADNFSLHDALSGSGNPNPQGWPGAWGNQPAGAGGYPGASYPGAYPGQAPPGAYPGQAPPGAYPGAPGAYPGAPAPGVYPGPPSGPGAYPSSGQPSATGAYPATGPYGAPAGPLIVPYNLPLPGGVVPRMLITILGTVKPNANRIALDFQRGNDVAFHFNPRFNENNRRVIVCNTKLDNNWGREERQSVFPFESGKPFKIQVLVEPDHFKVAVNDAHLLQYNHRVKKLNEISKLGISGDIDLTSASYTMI

Molecule | epitope bin (mutual competitive binding for Gal3) [1] | binding to Gal3 peptide 17 (SEQ ID NO: 19) [2] | binding to Gal3 peptide 13 (SEQ ID NO: 15) [2] | effect on Gal3 block of insulin-stimulated GLUT4 translocation [3] | also measured
849.1D2: anti-Gal3 antibody (antibody, V domains shown) VH: QVQLKESGPVLVAPSQSLSITCTVSGFSLSSYGVHWVRQPPGKGLEWLGVIWAGGSTDYDSALMSRLSISKDNSKSQVFLKMDSLQTDDTAMYYCAKPPYDYDGAWFAYWGQGTLVTVSA VL: DVVMTQTPKFLLVSAGDRVTITCKASQSVSSDVAWYQQKPGQSPKLLIYFASNRYTGVPDRFTGSGYGTDFTFTISTVQAEDLAVYFCQHNYISPFTFGGGTKLEIK | 11 | bound | – | – | binding to Gal3 peptide 1 (SEQ ID NO: 3) [2]: bound
847.13E2-mH0mL1: anti-Gal3 antibody (antibody, V domains shown) VH: EVQLQQSGPELVKPGASVKVSCKASGYSFTDYNMYWVMQSHGKSLEWIGYIDPYNDATSYSQKFTGKATLTVDKSSSTAFMHLNSLTSEDSAVYYCARWGRYEYYAMDYWGQGTSVTVSS VL: DIVMTQSPASLPVSLGQRATISCRASKSVTTSAYSYIHWYQQRPGQPPKLLIYLASNLESGVPARFSGSGSGTDFTLNIHPVEEEDAATYYCQHNRELPPTFGGGTKLEIN | CRD | bound | bound | – | –
847.13E2-mH0mL2: anti-Gal3 antibody (antibody, V domains shown) VH: EVQLQQSGPELVKPGASVKVSCKASGYSFTDYNMYWVMQSHGKSLEWIGYIDPYNDATSYSQKFTGKATLTVDKSSSTAFMHLNSLTSEDSAVYYCARWGRYEYYAMDYWGQGTSVTVSS VL: DIVLTQSPATLSVTPGDSVSFSCRASQIINNNLHWYQQKSHESPRLLIRYTSQSISGIPSRFSGSGSGTDFTLSINNVETEDFGMYFCQQTNSWPLTFGAGTKLELK | CRD | bound | bound | – | –
847.28D1: anti-Gal3 antibody (antibody, V domains shown) VH: QVQLVETGPGLVAPSQSLSITCTVSGFSLTSYGVHWIRQSPGKGLEWLGTIWAGGSTDYNSPLMSRLSISKDNSKNQVFLKMNSLQIDDTAIYYCASPPSGYDYDVFASWGQGTLVTVSA VL: DIRMTQSPASLSASVGETVTITCRASGNIHNYLAWYHQKQGKSPQLLVYNVKTLADGVPSRFSGSGSGTQFSLKINSLQPEDFGTYYCQHFWSIFPTFGGGTKLEIK | CRD | – | – | – | binding to Gal3 peptide 6 (SEQ ID NO: 8) [2]: bound
847.3B3: anti-Gal3 antibody (antibody, V domains shown) VH: QVQLKESGPGLVAPSQSLSITCTVSGFSLTSYGVHWIRQPPGKGLEWLGGIWAGGSTDYNSPLMSRLSITKDNSKSQVFLKMNSLQSDDTAMYYCASPPSGYDYDVFAYWGQGTLVTVSA VL: DILMTQSPASLSASVGETVTITCRASGNIHNYLAWYQQKQGKSPQLLVYSAKTLADGVPSRFSGSGSGTQFSLKIDSLQPEDFGTYYCQHFWSLFPTFGGGTKLEIK | CRD | bound | – | – | –
847.23F11: anti-Gal3 antibody (antibody, V domains shown) VH: QVQLQQSGAELVRPGASVKLSCKASGYTFTSSWMNWVKQRPGQGLDWIGMIDPSDSETHYNQMFKDKATLTVDKSSNTAYMQLSRLTSEDSAVYYCVNSNYESGYWGQGTTLTVSS VL: DILMTQSHKFMSTSVGDRVSITCKASQDVSSVVVWYQQKPGQSPKQLIYWASTRHTGVPDRFTGSGSGTDYTLTISSVQAEDLALYYCQQHYSTPYTFGGGTKLEIK | CRD | bound | bound | – | –
2D10-hVH4-HVL2: anti-Gal3 antibody, VH SEQ ID NO: 807, VL SEQ ID NO: 822 (antibody, V domains shown, VH-81 Peptide Sequence; VL-79 Peptide Sequence) VH: QVQLVQSGAEVKKPGASVKVSCKASGYTFTDYYINWVRQAPGQRLEWMGWIYPGSQDTKYNEKFQGRVTLTVDTSASTAYMELSSLRSEDTAVYFCANYFGSSGWFFDVWGQGTMVTVSS VL: DIVMTQSPLSLPVTPGEPASISCRSSKSLLHSDGITYLYWYLQKPGQSPQLLIYRMSNLASGVPDRFSGSGSGTDFTLKISRVEAEDVGVYYCAQMIEFPLTFGQGTKLEIK | – | – | – | reduce the ability of Gal3 to block GLUT4 translocation | –
2D10-hVH4-HVL4: anti-Gal3 antibody, VH SEQ ID NO: 809, VL SEQ ID NO: 824 (antibody, V domains shown, VH-83 Peptide Sequence; VL-81 Peptide Sequence) VH: QVQLVQSGAEVKKPGASVKVSCKASGYTFTDYYINWVRQAPGQRLEWMGWIYPGSQDTKYNEKFQGRVTLTVDTSASTAYMELSSLRSEDTAVYFCANYFGSSGWFFDVWGQGTMVTVSS VL: DIVMTQSPLSLPVTLGQPASISCRSSKSLLHSDGITYLYWYQQRPGQSPQLLIYRMSNLDSGVPDRFSGSGSGTDFTLKISRVEAEDVGVYYCAQMIEFPLTFGQGTKLEIK | – | – | – | reduce the ability of Gal3 to block GLUT4 translocation | –
2D10-hVH4-HVL3: anti-Gal3 antibody, VH SEQ ID NO: 808, VL SEQ ID NO: 823 (antibody, V domains shown, VH-82 Peptide Sequence; VL-80 Peptide Sequence) VH: QVQLVQSGAEVKKPGASVKVSCKASGYTFTDYYINWVRQAPGQRLEWMGWIYPGSQDTKYNEKFQGRVTLTVDTSASTAYMELSSLRSEDTAVYFCANYFGSSGWFFDVWGQGTMVTVSS VL: DVVMTQSPLSLPVTLGQPASISCRSSKSLLHSDGITYLYWYQQRPGQSPRLLIYRMSNRDSGVPDRFSGSGSGTDFTLKISRVEAEDVGVYYCAQMIEFPLTFGQGTKLEIK | – | – | – | reduce the ability of Gal3 to block GLUT4 translocation | –
2D10-hVH3-HVL1: anti-Gal3 antibody, VH SEQ ID NO: 810, VL SEQ ID NO: 825 (antibody, V domains shown, VH-84 Peptide Sequence; VL-82 Peptide Sequence) VH: QVQLVQSGAEVKKPGASVKVSCKASGYTFTDYYINWVRQAPGQRLEWMGWIYPGSQDTKYSQKFQGRVTITVDTSASTAYMELSSLRSEDTAVYYCANYFGSSGWFFDVWGQGTMVTVSS VL: DIVMTQSPLSLPVTPGEPASISCRSSKSLLHSDGITYLYWYLQKPGQSPQLLIYRMSNRASGVPDRFSGSGSGTDFTLKISRVEAEDVGVYYCAQMIEFPLTFGQGTKLEIK | – | – | – | reduce the ability of Gal3 to block GLUT4 translocation | –
